The MegaScale stability set (Tsuboyama et al. 2023)

B1: HHH_rd1_0493 (parent)
chain: RDEDEKEKIKEALKRGNEDKAKEIAKRANVSPEEYERLRKEAE

Variants of: B1
Assay: folding stability dG (cDNA display proteolysis); higher = more stable
Conditions: PBS, room temperature

**Q.** Which “folding stability dG” value does the source give for RDRDEKEKIKEALKRGNEDKAKEIAKRANVSPEEYERLRKEAE [E3R] here?
**A.** 2.93 kcal/mol

**Q.** Which “folding stability dG” value does the source give for RDPDEKEKIKEALKRGNEDKAKEIAKRANVSPEEYERLRKEAE [E3P] here?
**A.** 2.79 kcal/mol

**Q.** Which “folding stability dG” value does the source give for RDYDEKEKIKEALKRGNEDKAKEIAKRANVSPEEYERLRKEAE [E3Y] here?
**A.** 3.01 kcal/mol

**Q.** Which “folding stability dG” value does the source give for RDCDEKEKIKEALKRGNEDKAKEIAKRANVSPEEYERLRKEAE [E3C] here?
**A.** 2.57 kcal/mol

**Q.** For RDSDEKEKIKEALKRGNEDKAKEIAKRANVSPEEYERLRKEAE [E3S], which “folding stability dG” value is on record?
**A.** 2.89 kcal/mol

**Q.** With RDDDEKEKIKEALKRGNEDKAKEIAKRANVSPEEYERLRKEAE [E3D] as the variant, how does the “folding stability dG” value read?
**A.** 3.11 kcal/mol

**Q.** With RDADEKEKIKEALKRGNEDKAKEIAKRANVSPEEYERLRKEAE [E3A] as the variant, how does the “folding stability dG” value read?
**A.** 2.88 kcal/mol

**Q.** For RDVDEKEKIKEALKRGNEDKAKEIAKRANVSPEEYERLRKEAE [E3V], which “folding stability dG” value is on record?
**A.** 2.76 kcal/mol

**Q.** With RDHDEKEKIKEALKRGNEDKAKEIAKRANVSPEEYERLRKEAE [E3H] as the variant, how does the “folding stability dG” value read?
**A.** 3 kcal/mol

**Q.** Which “folding stability dG” value does the source give for RDNDEKEKIKEALKRGNEDKAKEIAKRANVSPEEYERLRKEAE [E3N] here?
**A.** 3 kcal/mol

**Q.** For RDMDEKEKIKEALKRGNEDKAKEIAKRANVSPEEYERLRKEAE [E3M], which “folding stability dG” value is on record?
**A.** 2.81 kcal/mol

**Q.** For RDQDEKEKIKEALKRGNEDKAKEIAKRANVSPEEYERLRKEAE [E3Q], which “folding stability dG” value is on record?
**A.** 3.06 kcal/mol

**Q.** With RDWDEKEKIKEALKRGNEDKAKEIAKRANVSPEEYERLRKEAE [E3W] as the variant, how does the “folding stability dG” value read?
**A.** 3 kcal/mol

**Q.** For RDIDEKEKIKEALKRGNEDKAKEIAKRANVSPEEYERLRKEAE [E3I], which “folding stability dG” value is on record?
**A.** 2.75 kcal/mol

**Q.** With RDGDEKEKIKEALKRGNEDKAKEIAKRANVSPEEYERLRKEAE [E3G] as the variant, how does the “folding stability dG” value read?
**A.** 2.88 kcal/mol

**Q.** With RDLDEKEKIKEALKRGNEDKAKEIAKRANVSPEEYERLRKEAE [E3L] as the variant, how does the “folding stability dG” value read?
**A.** 2.89 kcal/mol

**Q.** With RDFDEKEKIKEALKRGNEDKAKEIAKRANVSPEEYERLRKEAE [E3F] as the variant, how does the “folding stability dG” value read?
**A.** 2.93 kcal/mol

**Q.** For RDTDEKEKIKEALKRGNEDKAKEIAKRANVSPEEYERLRKEAE [E3T], which “folding stability dG” value is on record?
**A.** 2.94 kcal/mol

**Q.** Which “folding stability dG” value does the source give for RDKDEKEKIKEALKRGNEDKAKEIAKRANVSPEEYERLRKEAE [E3K] here?
**A.** 2.93 kcal/mol

**Q.** For LDEDEKEKIKEALKRGNEDKAKEIAKRANVSPEEYERLRKEAE [R1L], which “folding stability dG” value is on record?
**A.** 3.08 kcal/mol

**Q.** With SDEDEKEKIKEALKRGNEDKAKEIAKRANVSPEEYERLRKEAE [R1S] as the variant, how does the “folding stability dG” value read?
**A.** 3.15 kcal/mol

**Q.** With TDEDEKEKIKEALKRGNEDKAKEIAKRANVSPEEYERLRKEAE [R1T] as the variant, how does the “folding stability dG” value read?
**A.** 3.28 kcal/mol

**Q.** Which “folding stability dG” value does the source give for WDEDEKEKIKEALKRGNEDKAKEIAKRANVSPEEYERLRKEAE [R1W] here?
**A.** 3.04 kcal/mol

**Q.** For YDEDEKEKIKEALKRGNEDKAKEIAKRANVSPEEYERLRKEAE [R1Y], which “folding stability dG” value is on record?
**A.** 3.11 kcal/mol

**Q.** With NDEDEKEKIKEALKRGNEDKAKEIAKRANVSPEEYERLRKEAE [R1N] as the variant, how does the “folding stability dG” value read?
**A.** 3.16 kcal/mol

**Q.** For PDEDEKEKIKEALKRGNEDKAKEIAKRANVSPEEYERLRKEAE [R1P], which “folding stability dG” value is on record?
**A.** 3.19 kcal/mol

**Q.** For VDEDEKEKIKEALKRGNEDKAKEIAKRANVSPEEYERLRKEAE [R1V], which “folding stability dG” value is on record?
**A.** 3.22 kcal/mol

**Q.** Which “folding stability dG” value does the source give for QDEDEKEKIKEALKRGNEDKAKEIAKRANVSPEEYERLRKEAE [R1Q] here?
**A.** 3.1 kcal/mol

**Q.** Which “folding stability dG” value does the source give for MDEDEKEKIKEALKRGNEDKAKEIAKRANVSPEEYERLRKEAE [R1M] here?
**A.** 3.03 kcal/mol

**Q.** With RGEDEKEKIKEALKRGNEDKAKEIAKRANVSPEEYERLRKEAE [D2G] as the variant, how does the “folding stability dG” value read?
**A.** 2.95 kcal/mol

**Q.** With RMEDEKEKIKEALKRGNEDKAKEIAKRANVSPEEYERLRKEAE [D2M] as the variant, how does the “folding stability dG” value read?
**A.** 2.86 kcal/mol

**Q.** For RPEDEKEKIKEALKRGNEDKAKEIAKRANVSPEEYERLRKEAE [D2P], which “folding stability dG” value is on record?
**A.** 3.06 kcal/mol

**Q.** With RCEDEKEKIKEALKRGNEDKAKEIAKRANVSPEEYERLRKEAE [D2C] as the variant, how does the “folding stability dG” value read?
**A.** 2.94 kcal/mol

**Q.** With RREDEKEKIKEALKRGNEDKAKEIAKRANVSPEEYERLRKEAE [D2R] as the variant, how does the “folding stability dG” value read?
**A.** 2.79 kcal/mol

**Q.** Which “folding stability dG” value does the source give for RSEDEKEKIKEALKRGNEDKAKEIAKRANVSPEEYERLRKEAE [D2S] here?
**A.** 2.71 kcal/mol

**Q.** Which “folding stability dG” value does the source give for RVEDEKEKIKEALKRGNEDKAKEIAKRANVSPEEYERLRKEAE [D2V] here?
**A.** 3.17 kcal/mol

**Q.** For RFEDEKEKIKEALKRGNEDKAKEIAKRANVSPEEYERLRKEAE [D2F], which “folding stability dG” value is on record?
**A.** 3.22 kcal/mol

**Q.** Which “folding stability dG” value does the source give for RKEDEKEKIKEALKRGNEDKAKEIAKRANVSPEEYERLRKEAE [D2K] here?
**A.** 2.82 kcal/mol

**Q.** Which “folding stability dG” value does the source give for REEDEKEKIKEALKRGNEDKAKEIAKRANVSPEEYERLRKEAE [D2E] here?
**A.** 3.11 kcal/mol

**Q.** For RHEDEKEKIKEALKRGNEDKAKEIAKRANVSPEEYERLRKEAE [D2H], which “folding stability dG” value is on record?
**A.** 3.05 kcal/mol

**Q.** For RAEDEKEKIKEALKRGNEDKAKEIAKRANVSPEEYERLRKEAE [D2A], which “folding stability dG” value is on record?
**A.** 2.87 kcal/mol

**Q.** For RQEDEKEKIKEALKRGNEDKAKEIAKRANVSPEEYERLRKEAE [D2Q], which “folding stability dG” value is on record?
**A.** 3.15 kcal/mol

**Q.** With RYEDEKEKIKEALKRGNEDKAKEIAKRANVSPEEYERLRKEAE [D2Y] as the variant, how does the “folding stability dG” value read?
**A.** 3.38 kcal/mol

**Q.** For RNEDEKEKIKEALKRGNEDKAKEIAKRANVSPEEYERLRKEAE [D2N], which “folding stability dG” value is on record?
**A.** 3 kcal/mol

**Q.** With RLEDEKEKIKEALKRGNEDKAKEIAKRANVSPEEYERLRKEAE [D2L] as the variant, how does the “folding stability dG” value read?
**A.** 3.39 kcal/mol

**Q.** For RWEDEKEKIKEALKRGNEDKAKEIAKRANVSPEEYERLRKEAE [D2W], which “folding stability dG” value is on record?
**A.** 3.17 kcal/mol

**Q.** Which “folding stability dG” value does the source give for RIEDEKEKIKEALKRGNEDKAKEIAKRANVSPEEYERLRKEAE [D2I] here?
**A.** 3.21 kcal/mol

**Q.** For RTEDEKEKIKEALKRGNEDKAKEIAKRANVSPEEYERLRKEAE [D2T], which “folding stability dG” value is on record?
**A.** 3.03 kcal/mol

**Q.** Which “folding stability dG” value does the source give for RDENEKEKIKEALKRGNEDKAKEIAKRANVSPEEYERLRKEAE [D4N] here?
**A.** 2.89 kcal/mol

**Q.** With RDEHEKEKIKEALKRGNEDKAKEIAKRANVSPEEYERLRKEAE [D4H] as the variant, how does the “folding stability dG” value read?
**A.** 2.82 kcal/mol

**Q.** Which “folding stability dG” value does the source give for RDEMEKEKIKEALKRGNEDKAKEIAKRANVSPEEYERLRKEAE [D4M] here?
**A.** 2.96 kcal/mol

**Q.** Which “folding stability dG” value does the source give for RDEEEKEKIKEALKRGNEDKAKEIAKRANVSPEEYERLRKEAE [D4E] here?
**A.** 2.98 kcal/mol

**Q.** With RDELEKEKIKEALKRGNEDKAKEIAKRANVSPEEYERLRKEAE [D4L] as the variant, how does the “folding stability dG” value read?
**A.** 3.01 kcal/mol

**Q.** With RDEGEKEKIKEALKRGNEDKAKEIAKRANVSPEEYERLRKEAE [D4G] as the variant, how does the “folding stability dG” value read?
**A.** 2.8 kcal/mol

**Q.** With RDEIEKEKIKEALKRGNEDKAKEIAKRANVSPEEYERLRKEAE [D4I] as the variant, how does the “folding stability dG” value read?
**A.** 2.95 kcal/mol

**Q.** Which “folding stability dG” value does the source give for RDEFEKEKIKEALKRGNEDKAKEIAKRANVSPEEYERLRKEAE [D4F] here?
**A.** 2.73 kcal/mol

**Q.** With RDEAEKEKIKEALKRGNEDKAKEIAKRANVSPEEYERLRKEAE [D4A] as the variant, how does the “folding stability dG” value read?
**A.** 2.83 kcal/mol

**Q.** For RDEKEKEKIKEALKRGNEDKAKEIAKRANVSPEEYERLRKEAE [D4K], which “folding stability dG” value is on record?
**A.** 2.81 kcal/mol

**Q.** With RDECEKEKIKEALKRGNEDKAKEIAKRANVSPEEYERLRKEAE [D4C] as the variant, how does the “folding stability dG” value read?
**A.** 2.96 kcal/mol
